Key:
[1] = system: orthotopic MDA-MB-231 breast cancer; assay: 3G4 tumor treatment and histology; type: in vivo, mice
Protocol: FIG. 17A and FIG. 17B. […] At the conclusion of treatment, animals were perfused and tumors were snap-frozen, cut and stained with an antibody to murine CD31 (rat, anti-mouse CD31), a pan-endothelial marker of murine vasculature (FIG. 17A), or embedded in paraffin and strained with H&E (FIG. 17B).
In the orthotopic model, 1×10^7 cells in 0.1 ml DMEM are typically injected into MFP of anesthetized mice. Mice are anesthetized with 0.075 ml of mouse cocktail injected IP. The mouse cocktail is 5 ml Ketamine (100 mg/ml); 2.5 ml Xylazine (20 mg/ml); 1 ml Acepromazine (10 mg/ml); 11 ml sterile water. Dosage is 0.1 ml per 20-30 grams body weight via the IP route for a duration of 30 minutes.
Once the mouse is anesthetized, as measured by no response to toe/foot pinch, the mouse is laid on its left side and wiped with 70% ethanol just behind the head and around the right forearm/back area. […] 0.1 ml of cells are injected into the fat pad using a 1 ml syringe and a 27-gauge needle, producing a bleb in the fat pad. The incision is closed using a 9 mm sterile wound clip. The mouse is returned to its cage and observed until it has wakened from anesthesia and is mobile. Post-operative health status is determined, and if any signs of distress are observed, the animal is given acetaminophen (0.24 mg/ml)+codeine (0.024 mg/ml) in the drinking water. The wound clip is removed after 1 week. This method is used so that the cells are accurately placed into the selected site and not into the subcutaneous region. Tumors will be approximately 200 μl in volume (L×W×W) in 14-15 days and the take rate is essentially 100%.
Treatment was repeated 3 times a week. Animals were monitored twice a week for tumor measurements.

tumor cells = assay: Direct effect of 3G4 on tumor cells in vitro; type: cell-based
[2] = system: H2O2-treated HL-60 tumor cells; assay: Macrophage phagocytosis of PS-positive tumor cells; conditions: 5 μg/ml, vs isotype-matched control antibody

B1: 3G4: mouse IgG3 kappa monoclonal antibody binding PS and other anionic phospholipids; hybridoma ATCC PTA 4545 (antibody, V domains shown)
VH: EVQLQQSGPELEKPGASVKLSCKASGYSFTGYNMNWVKQSHGKSLEWIGHIDPYYGDTSYNQKFRGKATLTVDKSSSTAYMQLKSLTSEDSAVYYCVKGGYYGHWYFDVWGAGTTVTVSSATTTAPSVYPLVP
VL: DIQMTQSPSSLSASLGERVSLTCRASQDIGSSLNWLQQGPDGTIKRLIYATSSLDSGVPKRFSGSRSGSDYSLTISSLESEDFVDYYCLQYVSSPPTFGAGTKLELKRADAAPTVFIFGRIP
[1]; MBA-MD-231 tumors
  mice with long-term complete remissions: 30%
[1]; histological examination
  reduction in microvascular density, treated vs. untreated mice: 70%
[1]; orthotopic MDA-MB-231
  growth retardation: 50%
Tumor cells
  direct inhibitory effect on tumor cells: No direct inhibitory effect on tumor cells was observed
[2]
  increase in phagocytosis of PS-positive cells by macrophages: more than three fold
